What all share (test): cell-based or functional assay
In assay [1] the target is T1, human gpr-54 receptor (human, UniProt Q969F8 1-398).
Assay [2] addresses T1, human gpr-54 receptor. This is another data set of the same source.
Assay [3] addresses T1, human gpr-54 receptor. This is another data set of the same source.
Assay [4] addresses T1, human gpr-54 receptor. This is another data set of the same source.

Non-standard residues stand in square brackets, D forms with d.

T1 sequence (Q969F8 whole entry): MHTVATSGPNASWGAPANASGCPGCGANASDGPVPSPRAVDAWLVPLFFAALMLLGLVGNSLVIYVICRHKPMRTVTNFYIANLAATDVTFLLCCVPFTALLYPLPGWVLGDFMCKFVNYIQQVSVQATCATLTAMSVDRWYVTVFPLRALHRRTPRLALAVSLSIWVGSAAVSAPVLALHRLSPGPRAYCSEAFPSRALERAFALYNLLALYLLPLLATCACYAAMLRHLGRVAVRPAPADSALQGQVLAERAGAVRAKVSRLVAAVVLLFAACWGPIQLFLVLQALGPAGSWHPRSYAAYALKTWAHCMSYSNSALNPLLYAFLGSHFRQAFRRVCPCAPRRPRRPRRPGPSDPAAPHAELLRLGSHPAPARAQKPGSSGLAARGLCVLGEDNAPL

B1: 278 (peptide)
peptide: Ac-[dA]NWNGFGL[dR]F-NH2
On to B1, for which, in assay [1], the “Inhibition of IP stimulation by 10nM Agonist: % Inhibition of Max” value (shortened to “Inhibition … % Inhibition of Max”) is 47% and the “Inhibition of IP stimulation by 10nM Agonist: IC50” value (“Inhibition of IP stimulation … IC50” below) was > 100 nM.

B2: 244 (peptide)
peptide: Ac-[dF]NWNGFG[dW]RF-NH2
SMILES: CC(=O)N[C@H](Cc1ccccc1)C(=O)N[C@@H](CC(N)=O)C(=O)N[C@@H](Cc1c[nH]c2ccccc12)C(=O)N[C@@H](CC(N)=O)C(=O)NCC(=O)N[C@@H](Cc1ccccc1)C(=O)NCC(=O)N[C@H](Cc1c[nH]c2ccccc12)C(=O)N[C@@H](CCCNC(=N)N)C(=O)N[C@@H](Cc1ccccc1)C(N)=O
As to B2, in assay [1], the “Inhibition … % Inhibition of Max” value was 60% and the “Inhibition of IP stimulation … IC50” value came out at 10 nM.

B3: 239 (peptide)
peptide: Ac-[dY][dN]WNSFGWRF-NH2
SMILES: CC(=O)N[C@H](Cc1ccc(O)cc1)C(=O)N[C@H](CC(N)=O)C(=O)N[C@@H](Cc1c[nH]c2ccccc12)C(=O)N[C@@H](CC(N)=O)C(=O)N[C@@H](CO)C(=O)N[C@@H](Cc1ccccc1)C(=O)NCC(=O)N[C@@H](Cc1c[nH]c2ccccc12)C(=O)N[C@@H](CCCNC(=N)N)C(=O)N[C@@H](Cc1ccccc1)C(N)=O
In the case of B3, the “IP dose response, peptide alone: EC50 (unlabelled number beside rising curve) [239]” value in assay [2] amounted to 4.99 nM. Also, in assay [1], the “IP stimulation (IC50), peptide alone” value is 5 nM and the “Inhibition … % Inhibition of Max” value was found to be 0%.

B4: 191 (peptide)
peptide: Ac-FG[dL]RW-NH2
For the molecule B4, the “IP dose response, peptide alone: EC50 (unlabelled number beside rising curve) [191]” value in assay [3] was determined as 26100 nM. For the same molecule, in assay [1], the “IP stimulation (IC50), peptide alone” value came out at 20000 nM and the “Inhibition … % Inhibition of Max” value worked out at 79%.

B5: 240 (peptide)
peptide: Ac-[dY][dN]WNGFGWRF-NH2
As for B5, the “Inhibition … % Inhibition of Max” value in assay [1] is 39%.

B6: 276 (peptide)
peptide: Ac-[dA]NWNGFG[dL]RF-NH2
SMILES: CC(=O)N[C@H](C)C(=O)N[C@@H](CC(N)=O)C(=O)N[C@@H](Cc1c[nH]c2ccccc12)C(=O)N[C@@H](CC(N)=O)C(=O)NCC(=O)N[C@@H](Cc1ccccc1)C(=O)NCC(=O)N[C@H](CC(C)C)C(=O)N[C@@H](CCCNC(=N)N)C(=O)N[C@@H](Cc1ccccc1)C(N)=O
Take B6: in assay [1], the “Inhibition … % Inhibition of Max” value stood at 65% and the “Inhibition of IP stimulation … IC50” value amounted to 0.001 nM.

B7: 237 (peptide)
peptide: Ac-[dY]NWNGFGWRF-NH2
SMILES: CC(=O)N[C@H](Cc1ccc(O)cc1)C(=O)N[C@@H](CC(N)=O)C(=O)N[C@@H](Cc1c[nH]c2ccccc12)C(=O)N[C@@H](CC(N)=O)C(=O)NCC(=O)N[C@@H](Cc1ccccc1)C(=O)NCC(=O)N[C@@H](Cc1c[nH]c2ccccc12)C(=O)N[C@@H](CCCNC(=N)N)C(=O)N[C@@H](Cc1ccccc1)C(N)=O
In the case of B7, in assay [1], the “IP stimulation (IC50), peptide alone” value was 6400 nM and the “Inhibition … % Inhibition of Max” value was found to be 0%. In addition, the “IP dose response, peptide alone: EC50 (unlabelled number beside rising curve) [237]” value in assay [4] was 6380 nM.

B8: 248 (peptide)
peptide: Ac-[dA]NWNGFGWRF-NH2
SMILES: CC(=O)N[C@H](C)C(=O)N[C@@H](CC(N)=O)C(=O)N[C@@H](Cc1c[nH]c2ccccc12)C(=O)N[C@@H](CC(N)=O)C(=O)NCC(=O)N[C@@H](Cc1ccccc1)C(=O)NCC(=O)N[C@@H](Cc1c[nH]c2ccccc12)C(=O)N[C@@H](CCCNC(=N)N)C(=O)N[C@@H](Cc1ccccc1)C(N)=O
Regarding B8, in assay [1], the “Inhibition … % Inhibition of Max” value was 64% and the “Inhibition of IP stimulation … IC50” value was 5000 nM.

B9: 246 (peptide)
peptide: Ac-[dA]NWNG[dW]G[dW]RF-NH2
SMILES: CC(=O)N[C@H](C)C(=O)N[C@@H](CC(N)=O)C(=O)N[C@@H](Cc1c[nH]c2ccccc12)C(=O)N[C@@H](CC(N)=O)C(=O)NCC(=O)N[C@H](Cc1c[nH]c2ccccc12)C(=O)NCC(=O)N[C@H](Cc1c[nH]c2ccccc12)C(=O)N[C@@H](CCCNC(=N)N)C(=O)N[C@@H](Cc1ccccc1)C(N)=O
Regarding B9, in assay [1], the “Inhibition … % Inhibition of Max” value came to 80% and the “Inhibition of IP stimulation … IC50” value came to 50 nM.

B10: 245 (peptide)
peptide: Ac-[dY]NWNG[dW]G[dW]RF-NH2
SMILES: CC(=O)N[C@H](Cc1ccc(O)cc1)C(=O)N[C@@H](CC(N)=O)C(=O)N[C@@H](Cc1c[nH]c2ccccc12)C(=O)N[C@@H](CC(N)=O)C(=O)NCC(=O)N[C@H](Cc1c[nH]c2ccccc12)C(=O)NCC(=O)N[C@H](Cc1c[nH]c2ccccc12)C(=O)N[C@@H](CCCNC(=N)N)C(=O)N[C@@H](Cc1ccccc1)C(N)=O
With B10, in assay [1], the “Inhibition … % Inhibition of Max” value came out at 66% and the “Inhibition of IP stimulation … IC50” value was 10000 nM.

B11: 243 (peptide)
peptide: Ac-[dW]NWNGFG[dW]RF-NH2
SMILES: CC(=O)N[C@H](Cc1c[nH]c2ccccc12)C(=O)N[C@@H](CC(N)=O)C(=O)N[C@@H](Cc1c[nH]c2ccccc12)C(=O)N[C@@H](CC(N)=O)C(=O)NCC(=O)N[C@@H](Cc1ccccc1)C(=O)NCC(=O)N[C@H](Cc1c[nH]c2ccccc12)C(=O)N[C@@H](CCCNC(=N)N)C(=O)N[C@@H](Cc1ccccc1)C(N)=O
For B11, in assay [1], the “Inhibition … % Inhibition of Max” value is 55% and the “Inhibition of IP stimulation … IC50” value turned out to be 10 nM.

B12: Peptide 271 (peptide)
peptide: Ac-RRMKWKKY[dA]NWNGFG[dW]RF-NH2
Regarding B12, in assay [1], the “Inhibition … % Inhibition of Max” value was determined as 57% and the “Inhibition of IP stimulation … IC50” value is 5 nM.

B13: 247 (peptide)
peptide: Ac-[dA]NWNSFG[dW]RF-NH2
SMILES: CC(=O)N[C@H](C)C(=O)N[C@@H](CC(N)=O)C(=O)N[C@@H](Cc1c[nH]c2ccccc12)C(=O)N[C@@H](CC(N)=O)C(=O)N[C@@H](CO)C(=O)N[C@@H](Cc1ccccc1)C(=O)NCC(=O)N[C@H](Cc1c[nH]c2ccccc12)C(=O)N[C@@H](CCCNC(=N)N)C(=O)N[C@@H](Cc1ccccc1)C(N)=O
For the molecule B13, in assay [1], the “Inhibition … % Inhibition of Max” value was found to be 80% and the “Inhibition of IP stimulation … IC50” value amounted to 8 nM.

B14: 277 (peptide)
peptide: Ac-[dA]NWN[dA]FGLRF-NH2
SMILES: CC(=O)N[C@H](C)C(=O)N[C@@H](CC(N)=O)C(=O)N[C@@H](Cc1c[nH]c2ccccc12)C(=O)N[C@@H](CC(N)=O)C(=O)N[C@H](C)C(=O)N[C@@H](Cc1ccccc1)C(=O)NCC(=O)N[C@@H](CC(C)C)C(=O)N[C@@H](CCCNC(=N)N)C(=O)N[C@@H](Cc1ccccc1)C(N)=O
Consider B14, for which, in assay [1], the “IP stimulation (IC50), peptide alone” value stood at 1500 nM; the “Inhibition … % Inhibition of Max” value came to 57%; the “Inhibition of IP stimulation … IC50” value came to 0.05 nM.

B15: 275 (peptide)
peptide: Ac-[dA]NWN[dP]FG[dW]RF-NH2
SMILES: CC(=O)N[C@H](C)C(=O)N[C@@H](CC(N)=O)C(=O)N[C@@H](Cc1c[nH]c2ccccc12)C(=O)N[C@@H](CC(N)=O)C(=O)N1CCC[C@@H]1C(=O)N[C@@H](Cc1ccccc1)C(=O)NCC(=O)N[C@H](Cc1c[nH]c2ccccc12)C(=O)N[C@@H](CCCNC(=N)N)C(=O)N[C@@H](Cc1ccccc1)C(N)=O
On to B15, for which, in assay [1], the “IP stimulation (IC50), peptide alone” value stood at 21 nM; the “Inhibition … % Inhibition of Max” value came to 44%; the “Inhibition of IP stimulation … IC50” value was > 100 nM.

B16: 274 (peptide)
peptide: Ac-[dA]NWNPFG[dW]RF-NH2
SMILES: CC(=O)N[C@H](C)C(=O)N[C@@H](CC(N)=O)C(=O)N[C@@H](Cc1c[nH]c2ccccc12)C(=O)N[C@@H](CC(N)=O)C(=O)N1CCC[C@H]1C(=O)N[C@@H](Cc1ccccc1)C(=O)NCC(=O)N[C@H](Cc1c[nH]c2ccccc12)C(=O)N[C@@H](CCCNC(=N)N)C(=O)N[C@@H](Cc1ccccc1)C(N)=O
Turning to B16, in assay [1], the “IP stimulation (IC50), peptide alone” value is 530000 nM; the “Inhibition … % Inhibition of Max” value turned out to be 73%; the “Inhibition of IP stimulation … IC50” value came to 0.1 nM.

B17: 242 (peptide)
peptide: Ac-[dY][dN]WNGFG[dW]RF-NH2
modifications: also: further groups not given here
As to B17, the “Inhibition … % Inhibition of Max” value in assay [1] is 15%.

B18: 241 (peptide)
peptide: Ac-[dY][dN]WNSFG[dW]RF-NH2
On to B18, for which the “Inhibition … % Inhibition of Max” value in assay [1] was found to be 24%.

B19: 238 (peptide)
peptide: Ac-[dY]NWNSFG[dW]RF-NH2
SMILES: CC(=O)N[C@H](Cc1ccc(O)cc1)C(=O)N[C@@H](CC(N)=O)C(=O)N[C@@H](Cc1c[nH]c2ccccc12)C(=O)N[C@@H](CC(N)=O)C(=O)N[C@@H](CO)C(=O)N[C@@H](Cc1ccccc1)C(=O)NCC(=O)N[C@H](Cc1c[nH]c2ccccc12)C(=O)N[C@@H](CCCNC(=N)N)C(=O)N[C@@H](Cc1ccccc1)C(N)=O
As to B19, in assay [1], the “IP stimulation (IC50), peptide alone” value was found to be 2800 nM and the “Inhibition … % Inhibition of Max” value turned out to be 0%. Moreover, the “IP dose response, peptide alone: EC50 (unlabelled number beside rising curve) [238]” value in assay [4] stood at 2820 nM.

For the origin of these results see patent US20110046068A1 (MEDICAL RESEARCH COUNCIL, published 2011).
